Measured values from US7498429B2, “AHAS small subunit promoter” (priority 1998, dated 2009).

Experiments:
Type in all cases: biochemical
[1] = target: T1, Arabidopsis AHAS large subunit (wild type) (Arabidopsis thaliana, UniProt P17597); assay: AHAS assay of purified wild type large subunit with added substances
T1 construct: GST (glutathione transferase) (N, cleaved yes); made in house; host or cells: E. coli DH5alpha
T1 sequence (P17597 56-670): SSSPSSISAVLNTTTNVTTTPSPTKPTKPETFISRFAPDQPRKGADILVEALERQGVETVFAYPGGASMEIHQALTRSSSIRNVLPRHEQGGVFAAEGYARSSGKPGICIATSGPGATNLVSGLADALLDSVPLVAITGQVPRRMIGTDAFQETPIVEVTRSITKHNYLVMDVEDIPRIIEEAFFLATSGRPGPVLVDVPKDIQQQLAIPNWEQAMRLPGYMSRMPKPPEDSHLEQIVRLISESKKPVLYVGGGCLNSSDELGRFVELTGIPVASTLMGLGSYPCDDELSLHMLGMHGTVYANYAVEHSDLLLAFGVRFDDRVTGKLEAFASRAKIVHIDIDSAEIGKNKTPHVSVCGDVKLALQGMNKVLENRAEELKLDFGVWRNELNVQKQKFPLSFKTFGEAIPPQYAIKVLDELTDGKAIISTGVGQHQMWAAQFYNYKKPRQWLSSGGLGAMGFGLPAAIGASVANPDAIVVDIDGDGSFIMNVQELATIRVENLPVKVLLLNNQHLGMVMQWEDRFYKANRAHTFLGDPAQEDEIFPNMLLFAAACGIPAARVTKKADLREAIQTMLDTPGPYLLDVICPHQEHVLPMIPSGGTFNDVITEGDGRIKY
Protocol: (§1) AHAS assays. AHAS assays were performed with slight modification as described by Singh et al. {Singh et al., 1988}. AHAS activity was assayed in 1× AHAS assay buffer (50 mM HEPES pH 7.0, 100 mM pyruvate, 10 mM MgCl2, 1 mM TPP, and 50 μM FAD). A final concentration of 1× assay buffer was obtained either by dilution of enzyme extracted in 2× assay buffer or addition of enzyme to make a final concentration 1×AHAS assay buffer. All assays containing imazethapyr and associated controls contained a final concentration of 5% DMSO due to addition of imazethapyr to assay mixtures as a 50% DMSO solution. Assays were performed in a final volume of 250 μL at 37° C. in microtiter plates.
Effects of Dithiothreitol. The effect of dithiothreitol (DTT) in Phosphate Buffered Saline (MTPBS) on AHAS large subunit enzyme activity was measured. Experiments were carried out with or without 3 mM DTT in the purified protein solution of large subunit. The assays were conducted as above. […] Moreover, in the absence of DTT, large subunit activity degraded over the 4 day period (FIG. 6).
Effects of Bovine Serum Albumin. To determine whether the enhancement of the large subunit was specific to the small subunit, another nonspecific control which tested the effects of bovine serum albumin was run. To a fixed amount of large subunit an increasing amount of a 0.25 mg/mil BSA solution was added.
(§2) The following experiments used the small subunit and large subunit proteins purified as described in Example 2 above. The plasmid F1 containing the AHAS small subunit gene from Arabidopsis was expressed in E. coli and partially purified. The protein concentration of the sample was determined and aliquots of increasing concentration were added to a constant amount of purified Arabidopsis large subunit.

[2] = target: T2, herbicide-resistant mutant (Met124 His) large subunit Arabidopsis AHAS protein (Arabidopsis thaliana, UniProt P17597, M124H); assay: AHAS assay of herbicide-resistant mutant large subunit with added small subunit; conditions: mutant with methionine at position 124 substituted by histidine (FIG. 9)
T2 construct: GST (glutathione transferase) (N, cleaved yes); made in house; host or cells: E. coli DH5alpha
T2 sequence (P17597 56-670 M124H): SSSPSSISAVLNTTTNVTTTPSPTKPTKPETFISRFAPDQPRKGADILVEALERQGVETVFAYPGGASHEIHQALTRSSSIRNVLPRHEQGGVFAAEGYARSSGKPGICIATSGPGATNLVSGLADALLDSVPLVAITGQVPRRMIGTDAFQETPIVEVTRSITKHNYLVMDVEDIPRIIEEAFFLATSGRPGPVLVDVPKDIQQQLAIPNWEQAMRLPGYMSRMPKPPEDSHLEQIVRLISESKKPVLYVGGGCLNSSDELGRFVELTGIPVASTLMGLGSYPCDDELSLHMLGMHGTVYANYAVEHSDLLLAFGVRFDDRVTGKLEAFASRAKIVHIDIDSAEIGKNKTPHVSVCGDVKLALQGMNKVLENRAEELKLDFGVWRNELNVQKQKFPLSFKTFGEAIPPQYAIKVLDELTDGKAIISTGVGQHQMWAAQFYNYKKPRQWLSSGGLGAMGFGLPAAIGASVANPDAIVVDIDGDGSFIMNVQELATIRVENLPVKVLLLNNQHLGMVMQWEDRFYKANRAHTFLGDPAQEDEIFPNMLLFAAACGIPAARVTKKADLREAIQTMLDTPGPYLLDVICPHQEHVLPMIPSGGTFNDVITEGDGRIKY
T2 sequence (Q93YZ7 233-491 P488L, further chain): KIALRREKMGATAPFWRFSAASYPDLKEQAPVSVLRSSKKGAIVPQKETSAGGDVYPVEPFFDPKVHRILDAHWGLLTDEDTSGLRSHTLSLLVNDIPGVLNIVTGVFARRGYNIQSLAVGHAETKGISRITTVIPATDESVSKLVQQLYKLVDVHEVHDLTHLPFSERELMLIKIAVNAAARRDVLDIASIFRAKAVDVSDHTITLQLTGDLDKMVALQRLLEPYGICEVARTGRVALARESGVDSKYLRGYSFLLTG
Protocol: as §1, §2
In another experiment, a herbicide-resistant mutant of the large subunit enzyme (substitution mutation at position 124, methionine substituted by histidine) was used.

[3] = target: T3, Arabidopsis AHAS large subunit (Arabidopsis thaliana, UniProt P17597); assay: Stability of AHAS large subunit activity on storage in MTPBS with or without DTT
T3 construct: GST (glutathione transferase) (N, cleaved yes); made in house; host or cells: E. coli DH5alpha
T3 sequence (P17597 56-670): T1 sequence (P17597 56-670)
Protocol: The cell pellet from 1 liter of cell culture was resuspended in 10 ml of MTPBS (150 mM NaCl, 16 mM Na2HPO4, 4 mM NaH2PO4), pH 7.3 (Smith and Johnson Gene 67: 31-40, […]) and 100 μg/ml of lysozyme was added. The suspension was adjusted to 5 mM dithiothreitol. Triton X-100 was added to a final concentration of 1% by addition of a 20% Triton X-100 in MTPBS solution. The cells were shaken gently at 30° C. for 15 minutes and were then cooled to 4° C. on ice and sonicated for 8-10 seconds using a microtip probe, duty cycle 70%, output control at maximum for the microtip pulser. The sonicate was centrifuged two times in a J20 rotor, 17,000 rpm, 4° C., 10 minutes, to remove insoluble material. Lysate was added to 150 mg (dry weight) of glutathione agarose (equilibrated and hydrated in MTPBS) and inverted for 30 minutes at 4° C. Agarose was settled by centrifugation at 500 rpm for 5 minutes and was washed with ice cold MTPBS by repeated centrifugation cycles until the A280 of the wash matched that of MTPBS. Agarose was transferred to an appropriate column for elution. Fusion proteins were eluted with 50 mM Tris-HCl, 5 mM reduced glutathione into 1 ml fractions. […]
Effects of Dithiothreitol. The effect of dithiothreitol (DTT) in Phosphate Buffered Saline (MTPBS) on AHAS large subunit enzyme activity was measured. […]

For O[C@H](CS)[C@H](O)CS (racemic) [DTT, dithiothreitol], the “effect on catalytic activity of the AHAS large subunit” value ([1]; 3 mM DTT in MTPBS versus no DTT (FIG. 5 vs FIG. 6)) was “enhanced dramatically” and the “stabilization and activation of the enzyme compared with other sulfhydryl reductants” value ([1]; versus reduced glutathione and β-mercaptoethanol) was “better than reduced glutathione and β-mercaptoethanol”.

With “Arabidopsis small subunit protein: Arabidopsis AHAS small subunit expressed from plasmid F1 in E. coli and partially purified” the “effect on enzymatic activity of herbicide-resistant form of the large subunit” value [2] was “also enhanced” and the “effect on enzymatic activity of the catalytic large subunit” value ([1]; increasing small subunit (from plasmid F1) added to constant wild type large subunit (FIG. 8)) was “enhances the level of enzymatic activity”.

B1: Arabidopsis large subunit: purified wild type Arabidopsis AHAS large subunit protein expressed in E. coli (pAC774) (protein)
chain: SSISAVLNTTTNVTTTPSPTKPTKPETFISRFAPDQPRKGADILVEALERQGVETVFAYPGGASMEIHQALTRSSSIRNVLPRHEQGGVFAAEGYARSSGKPGICIATSGPGATNLVSGLADALLDSVPLVAITGQVPRRMIGTDAFQETPIVEVTRSITKHNYLVMDVEDIPRIIEEAFFLATSGRPGPVLVDVPKDIQQQLAIPNWEQAMRLPGYMSRMPKPPEDSHLEQIVRLISESKKPVLYVGGGCLNSSDELGRFVELTGIPVASTLMGLGSYPCDDELSLHMLGMHGTVYANYAVEHSDLLLAFGVRFDDRVTGKLEAFASRAKIVHIDIDSAEIGKNKTPHVSVCGDVKLALQGMNKVLENRAEELKLDFGVWRNELNVQKQKFPLSFKTFGEAIPPQYAIKVLDELTDGKAIISTGVGQHQMWAAQFYNYKKPRQWLSSGGLGAMGFGLPAAIGASVANPDAIVVDIDGDGSFIMNVQELATIRVENLPVKVLLLNNQHLGMVMQWEDRFYKANRAHTFLGDPAQEDEIFPNMLLFAAACGIPAARVTKKADLREAIQTMLDTPGPYLLDVICPHQEHVLPMIPSGGTFNDVITEGDGRIKY
For B1, the “stability of large subunit activity” value ([3]; absence of DTT, 4 day period (FIG. 6)) was “degraded” and the “stability of large subunit” value ([3]; in the presence of 3 mM DTT, 1 month, stored at 4° C.) was “very stable”.
